Data taken from US20220160891A1 (Johns Hopkins, published 2022).
Like-named read-outs stand apart in the source and are kept apart here.

T1: yeast surface-displayed mouse IL-2 (residues 1-149) (mouse, UniProt P04351 21-169)
T1 construct: range 1-149; also called mIL-2; not shown: yeast display anchor encoded by the pCT302 vector
T1 sequence (looked up): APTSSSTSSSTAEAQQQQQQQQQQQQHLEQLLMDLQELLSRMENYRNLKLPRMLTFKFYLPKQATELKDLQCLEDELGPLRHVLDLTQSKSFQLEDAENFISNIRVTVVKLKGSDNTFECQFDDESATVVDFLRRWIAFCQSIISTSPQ


How the values were obtained:
[1] = biological target: biotinylated human IL-2Ralpha extracellular domain (residues 1-214) (human) (UniProt P01589); experiment: bio-layer interferometry equilibrium titration on immobilized hIL-2Rα, response MW normalized
[2] = biological target: T2, biotinylated human IL-2 immobilized on streptavidin-coated tips (human, UniProt P60568 21-153, biotinylated (site not stated)); experiment: bio-layer interferometry equilibrium titration on immobilized hIL-2, response MW normalized
T2 construct: also called biotinylated hIL-2; immobilized hIL-2; not shown: tags and biotinylation site of the biotinylated hIL-2 construct are not described (the BAP tag is described only for hIL)
T2 sequence (P60568 21-153): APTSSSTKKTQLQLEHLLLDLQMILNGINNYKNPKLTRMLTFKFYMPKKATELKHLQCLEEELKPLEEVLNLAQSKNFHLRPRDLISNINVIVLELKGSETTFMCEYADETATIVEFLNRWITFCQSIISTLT
Method: (§1) Bio-layer interferometry binding studies. […] Less than 5 signal units (nm) of receptor was immobilized to minimize mass transfer effects. […] An irrelevant protein was included in a reference well to subtract non-specific binding. Surface regeneration for all interactions was conducted using a 15 second exposure to 0.1 M glycine pH 3.0. Experiments were carried out in PBSA (phosphate-buffered saline, pH 7.3 plus 0.1% bovine serum albumin (BSA, Thermo Fisher Scientific)) at 25° C. Data was visualized and processed using the Octet® Data Analysis software version 7.1 (Molecular Devices). Equilibrium titration curve fitting and KD value determination was implemented using GraphPad Prism, assuming all binding interactions to be first order.

[3] = biological target: T3, yeast surface-displayed human IL-2 (residues 1-133) (human, UniProt P60568 21-153); experiment: yeast surface titration on hIL-2-displaying yeast, flow cytometry, normalized MFI
T3 construct: also called hIL-2; not shown: yeast display anchor encoded by the pCT302 vector
T3 sequence (P60568 21-153): as above
Method: (§2) Yeast surface binding studies. […] Cells were then washed and stained with a 1:200 dilution of Alexa647-conjugated streptavidin (Thermo) in PBSA for 15 minutes at 4° C. After a final wash, cells were analyzed for antibody binding using a CytoFLEX flow cytometer (Beckman Coulter). Background-subtracted and normalized binding curves were fitted to a first-order binding model and equilibrium dissociation constant (KD) values were determined using GraphPad Prism.
(§3) A rapid small-scale HEK 293F cell transfection assay was developed to optimize immunocytokine expression. […] After a 3-day incubation, secreted protein was captured from the supernatant with protein G resin, eluted with 0.1 M glycine pH 2.0, and analyzed via SDS-PAGE. […] Immunocytokine expression was scaled up in HEK 293F cells and the secreted protein was purified via protein G affinity chromatography followed by size-exclusion chromatography.

[4] = biological target: T3, yeast surface-displayed human IL-2 …; experiment: as above; remark: listed apart in the source
Method: as §2

[5] = biological target: T1, yeast surface-displayed mouse IL-2 …; experiment: yeast surface titration on mIL-2-displaying yeast, flow cytometry, normalized MFI
[6] = biological target: T2, biotinylated human IL-2 immobilized on …; experiment: bio-layer interferometry equilibrium titration on immobilized hIL-2, response MW normalized; remark: listed apart in the source
Method: as §1

[7] = biological target: T3, yeast surface-displayed human IL-2 …; experiment: yeast surface display titration of soluble antibody, flow cytometry; apparent bivalent affinity
Method: as §2, §3

Molecule	EC50 (read off the curve) [1]	EC50 (read off the curve) [2]	Kd [3]	EC50 (read off the curve) [4]	binding result [5]	EC50 (read off the curve) [6]	Kd [7]
hIL-2/F5111 complex (from UniProt P60568 21-153)	8000 pM						
human IL-2 cytokine (residues 1-133), soluble, C-terminal hexahistidine tag (from UniProt P60568 21-153) (ligand)	5000 pM						
recombinant F5111 antibody (human IgG1 lambda) (antibody, V domains shown, also called F5111 Ab; monoclonal antibody F5111) VH: QLQLQESGPGLVKPSQTLSLTCTVSGGSISSGGYYWSWIRQHPGKGLEWIGYIYYSGSTYYNPSLKSRVTISVDTSKNQFSLKLSSVTAADTAVYYCARTPTVTGDWFDPWGRGTLVTVSS VL: NFMLTQPHSVSESPGKTVTISCTRSSGSIASNYVQWYQQRPGSSPTTVIYEDNQRPSGVPDRFSGSIDSSSNSASLTISGLKTEDEADYYCQSYDSSNVVFGGGTKLTVLG		~3000 pM	420 pM	~80 pM	no binding (tested: about 1e-7 M)	~600 pM	430 pM
